Experiment: yeast display, Sf9 membrane polyspecificity reagent, FACS + sequencing; frameworks hold sequencing errors
Summary of the method: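 Polyreactivity labels are assigned by the sorting gate from which each nanobody was recovered. The gates were low and high (top ~1%), set on anti-HA fluorescence for expression and streptavidin fluorescence for reagent binding. Before sorting, galactose-induced (36–48 hours) yeast display cells were stained for 1 hour at 4 °C with 10% biotinylated, detergent-solubilized Sf9 membrane reagent.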

Row | Sequence | polyreactivity (PSR sort gate)
1 | QVQLVESGGGLVQAGGSLLLSCAASGFTFRYYAMGWYRQAPGTERELVAAISSGGNTRYADSVKGRFTISRDNAKITVYLQLNSLKPEDTAVYYCARRPGAPRESYDYWGQGTQVTVSS | high polyreactivity
2 | QVQLVESGGGLVQAGGSLRLSCAASGRTSWYTMGWYRQAPGKERELVAAISGSGGITYYADSVKGRFTISRDNAKNTVYLQMNSLKPEDTAVYYCNALRPRSLTEMYYWGQGTQVTVSP | high polyreactivity
3 | QVQLVESGGGLVQAGGSLRLSCAASGSTFYYNAMGGYRQAPGKEWELVATITSAGRTNYADSVKGRFTISRVNAKNTDYLQMNSLKPEDTAVYYCNARYRLSRYNYWGQGTQVTVSS | low polyreactivity
4 | QVQLVESGGGLVQAGGSLRLSCAASGLIFSYYTMGWYRQAPGKERELVAAISSAGGSTYYADSVKGRFTISRDNAKNTVYLQMNSLKPEDTAVYYCAARYSGRPYGPPGYLWKDYYWGQGTQVTVSS | high polyreactivity
5 | QVQLVESGGGLVQAGGSLRLSCASSGRTFLGYAMGWYRQAPGKERELVAAISYSGSSTYYADSVKGRFTISRDNAKNTVYLQMNSLKPEDTAVYYCAAQFYFLFDYWGQGTQVTVSS | low polyreactivity
6 | QVQLVESGGGLVQAGGSLRLSCAASGSIFLKYAMGWYRQAPGKERELVAAISSRGGSTYYADSVKGRFTISRDNAKNTVYLQMNSLKPEDTAVYYCAAKRWPGTDGYWGQGTQVTVSS | high polyreactivity
7 | QVQLVESGGGLVQAGGSLRLSCAASGSTFYSYAMGWYRQAPGKERELVAAISSGGSTYYADSVKGRFTISRDNAKNTGYLQMNSLKPEDTAVYYCAAKRRAKTGYRYDYWGQGTQVTVSS | high polyreactivity
8 | QVQLGESGAGLVQAGGSLRLSCAASGRTFYRYAMGWYRQAPGKERELVAAISSSGGRTYYADSVKGRFTISRDNAKNTVYLQMNSLKPEDTAVYYCAKSGYHSLVLWIEDYWGQGTQVTVSS | low polyreactivity
9 | QVQLVESGGGLVQAGGSLRLTCAASGSTFWYYAMGWYRQAPGKERELVASITYSGGSTYYADSVKGRFTISRDNAKNTVYLQMNSLKPEDTAVYYCAKDGVSPSLRAYAAGYDYWGQGTQVTVSS | low polyreactivity
10 | QVQLVESGGGLVQAGGSLRLSCAASGFTFRGYAMGWYRQAPGIERELVATISRRAASTYYADTVKGRFTISRDNAKNTVYLLMNSLKPEDTAVYYCAKVNRYDDDRDGFGYWGHGTQVTVSS | high polyreactivity
11 | QVQLVESCGGLVQAGGSLRLRCAASRSIFDSYAMGWYRQAPGKERELVASISYRGGSTYYADSVKGRFTISRDIAKNTVYLQMNSLKPEDTAVYYCAATPGYHYRSWRYYYWGQGNQVTVSS | high polyreactivity
12 | QVQRVESGGGLVQAGGSLRLSCAASGRNFTRYAMGWYRQAPGKERELVASISRRGGSTYYADSVKGRFTISRDNAKNTVYLQMNSLKPEDTAVYYCNALVIARNIEMDYWGQGTQVTVSS | high polyreactivity
13 | QVQLVESGGGLVQAGGSLRLSCAASGRIFRWNAMGWYRQAPGKEREFVAAISWNGGRTYYADSVMGRFTISRDNAKNTVYLQMNSLKPEDPAVYYCAATHSVPDLLSGDYWGQGTQVTVSS | low polyreactivity
14 | QVQLVESGGGLVQAGGSLRLSCAASGRIFLWYAMGWYRKAPGKERELVADISSNGGSTRYADSVKGRFAISRDNEKNTVYLQMNILKPEDTAVYYCNADVHWNRYRYGGNGYGYWGQGTQVTVSS | low polyreactivity
15 | QVQLVESGGGLVQAGGSLRLSCAASGSIFGLYAMGWYRQAPGIERALVAAITTTGGSTYYADSVKGRFTISRDNAKNTVYLQMNSLKPEDTAVYYCNADYVAYGPEYDYWGQGTQVTVSS | low polyreactivity
16 | QVQLVESGGGLVQAGGSLRLSCAASGSIFNYNAMGWYRQAPGKERELVAAISSGGSTNYADSVKGRFTISRDNAKNTVYLQMNSLKPEDTAVYYCAKRGKQYRKMNYWGQGTQVTVSS | high polyreactivity
17 | QFQLVESGGGLVQAGGSLRLRCAPSGNTLIVKAMGWYRQAPGKEMELVAAITRDGRTNYADSVKGRFTISRDNAKNTVYLQMNSLKPEDTAVYYCAAEGVPDALDRDYWGQGTQVTVSS | low polyreactivity
18 | QVQLVESGGGLVQAGGSLRLSCAASGRIFTINAMGWYRQAPGKERELVAVITRGGSTKYADSVKGRFTISRDNAKNTVYLQMNSLKPEDTAVYYCAARVRAGHGKNGYWGQGTQVTVSS | high polyreactivity
19 | QVQHVESGGGLVQAGGSLRLSCAASGFTFAWNAMGWYRQAPGKERELVAAITWGDNSTYYADSVKGRFTISRDNAKNTVYLQMNSLKPEDTAVYYCAARVTHWYYLFGYDYWGQATQVTVSS | low polyreactivity
20 | QVQLVESGGGLVQAGGSLRLSCAASGYTFQAYAMGWYRQAPGKERELVAAISFSSGSTYYADSVKGRFTISRDNAKNTVYLQMNSLKPVDTAVYYCATDYPYYGYDYWGHGTQVTVSS | low polyreactivity
21 | QVQLGESGGGLVQAGGSLRLSCAASGSTFNIYAMGWSRQSPGNERELVAAISSCGGRTYYADSVKGRFTISLDNAKNTVYLQMNSVKPEDTAVYYCAAVRSYYRGYDYWGQGTQVTVSS | high polyreactivity
22 | QVQLVESGGGLVQAGGSLRLSCAASGSTFPSYAMGWYRQAPGKERELVAAINSGGGTNYADSVKGRFTISRDNAKNTVYFQMNSLKPEDTAVYYCAKSRDDYTNTEGGYWGQGTQVTVSS | low polyreactivity

Row | Sequence | polyreactivity (PSR sort gate)
23 | QVQLVESGGGLVQAGGSLRLSCAASGSTFGQYAMGWYRQAPGKERELVAAISTSGGSTYYADSVKGRFTISRDNAKNTVYLQMNSLKPEDTAVYYCAVDRLPSYPTGFDYWGQGTQVTVSS | high polyreactivity
24 | QVQLVESGGGLVQAGGSLRLSCAASGRILWSYAMGWYRQAPGKERELVAAITSGTRTNYADSVKGRFTISRDNAKNTVYLQMNSLKPEDTAVYYCAADRYWPAFYRTRGWDYYYWGQGTQVTVSS | high polyreactivity
25 | QVQLVESGGGLVQEGGSLRLSCAASGSTFEYNAMGWDRQAPGKEREFVAAISRTGSRTYYADSVKGRFTISRDNAKNTVFLQMNSLIPEDTAVYYCASVKSRLQVGYYSWGQGTQVTVSS | high polyreactivity
26 | QVHLVESGGGLVQAGGSLRLSCASSGSTFGYYAMGWYRQAPGKERELVAAITGRGGSTYYADSVKGRFTISRDNAKNTVYLQLISLKQEDTAVYYCAVGKYRLYYSGAYGYWGQGTQVTVSS | high polyreactivity
27 | QVQRVESGGGLVQAGGSLRLSCAASASIFASYAMGWYRQAPGKERELVASISRGGGTTYADSVKGRFTISRDNAKNTVYLQMNSLKPDDTAVYYCAARKVIRYRPYGYWGQGTQVTVSS | high polyreactivity
28 | QDQLQESGGGLEQARGSLRLSCAASGYISTFSSEMGWYRQAPGKELELVASIAPCCTTSYADSVKGRCTISRDNAKNTVYLQMNSLKPEDTSVYYCAVDYTVPASFGFRGQGTQVTVSS | high polyreactivity
29 | QVQLVESGGGLVQAGGSLRLSCAASGSTFKYYPMGWYRQAPGKERELVAAITSTGSTNYADSVKGRFTISRDNAKNTVYLQMNSRKPEDTAVYYCAKKYFYSTYYSWGHGTQVTVSS | low polyreactivity
30 | QVQLVESGGGLVQAGGSLRLSCAASGSIFKPYAMGWYRQAPGKERELVAAISRSGSTYYADSVKGRFTISRDNAKNSVYLQMNSLKPEVTAVFYCAAETQARWRRYDYWGQGSQVTVSS | low polyreactivity
31 | QVQLVESGGGLVQAGGSLRLSCAASGSTFNYYAMGWYRQAPGKERELVAGITWRGRTYYADSVKGRFTISRDNAKNTVYLQMNSLKPEDTAVYYCAARQGTYGYWGQGTQVTVSS | high polyreactivity
32 | QVQLVESGGGLVQAGGSLRLSCAASGRIFNSNTMGWYRQAPGKERELVAAITYSGGSTYYADSVKGRFSISRDNAKNTVYLQMNSLKPEDTAVYYCAASYYYGRRYDYWGQGTQVTVSS | low polyreactivity
33 | QFQLVESGGGLVQAGGSLRLSCAASGFIFKRYTMGWYRQAPGKERELVAAISFSGGSTYYADSVKGRFTISRDNAKNTVYLQMNSLKPEDTAVYYCAKVYRVVPATQKEYGYWGQGTQVTVSS | high polyreactivity
34 | QVQLVESGGGLVQAGGSLRLSCAASGFIFGVNAMGWYRQAPGKEPELVAAINGGASTYYADSVKGRFTISRDNAKNTVYLQMNSLKPEDTAVYYCAAVFYDYRGRLYPNFGLYYYWGQGTQVTVSS | high polyreactivity
35 | QVQLVESGGGLVQAGGSLRLSCAASGLIFKTYTMGWYRQAPGKEREFVAAITTSGGSTYYADSVKGRFTISRDNAKNTVYLQMNSLKPEDTAVYYCAAVWWKSFQGSSYRMNYWGQGTQVTVSS | high polyreactivity
36 | QVQLVETGGGLVQAGGSLRITCAASGSIFSYYDMGLNRQAPGNEREMVAAFSWDGGDRTYADSVKGRFTISRDIAKNTVYLQMNSLKPEDSAVYYCAKNTGSYRRVNLDYWGQGTQVTVSS | low polyreactivity
37 | QVQLVESGGGLVQAGGSLRLSCAASGIPRNTMGWYRQAPGKERELVASISTSGGSTYYADSVKGRFTLSRDNANNTVYLQMNSLKPEDTAVYYCAKKGYASRYFIYDYWGQGTQVTVSS | low polyreactivity
38 | QVQLVESGGGLVQAGGSLRLSCAASGSTFPYNAMGWYRQAPGKERELVAAITSSGRTNYADSVKGRFTISRDNANNTVYLQMNSLKPEDTAVYYCAAARWYAHRVDYWGQGTQVTVSS | low polyreactivity
39 | QVQIVESGGGLVQAGGSLRLSCAASGRTLKFNTMGWYRQAPGKERELVAAISGSGGSTYYADSVKGRFTISRDNAKNTVYLQMNSLKPEDTAVYYCAKYGVLRGYGYDYWGQGTQVTVSS | high polyreactivity
40 | QVQLVESGGGLVQAGGSLRLSCAASGRTFGIYALGWYRQAPGKERELVAAITGRGGSTHYADSVKGRFTISRDNAKNTVYLQMNSLKPEDTAVYYCNAEGVYYDYKYGYYGYDYWGQGTQVTVSS | low polyreactivity
41 | QVQLVESGGGLVQAGGSLRLSCAASGSIFVYNAMGWYRQAPGKERELVAAIDTVGSTNYADSVKGRFTISRDNAKNTVYLQMNSVKPVDPAVYYCAVVTPYWSFYEQVIPSNYWGQGTQVTVSS | low polyreactivity
42 | QVQLVESGGGLVQAGGSLRLSCAASGYNFGVYAMGWYRQAPGKERELVAAINGGDSTYYADSVKGRFTISRDNAKNTVYLQMNSLKPEDTAVYYCAADPYSVYGGDYWGQGTQVTVSS | low polyreactivity
43 | QVQLQESGGGLVQAGGGLRLSCAESGTISGPHVMRWYRQATGKEREFVAAINVGAYTYYADNVKGRFTISRDNEKNTVYLQMNSLKPEDTAFYYCAAFARYSRRYYYWGQGTQVTVSS | low polyreactivity

Source: the nanobody polyreactivity screen of Harvey et al. (2022)
